The values below come from US20200181210A1, “MODIFIED CYCLIC PEPTIDES AND THERAPEUTIC USE THEREOF” (THE BROAD INSTITUTE, INC., priority 2017, published 2020).

For this data set, the system named is trypsin. Briefly: trypsin protease digestion resistance of cyclotides (SDS-PAGE).

Experimental: Protease conditions were tested on cyclotides and variants. Samples were subjected to 10 μg of trypsin at 37° C. for up to 24 hours. […] Four elutions were collected in 200 μL fractions. Protein content of bound/eluted material was quantified based upon detection of fluorescently labeled lysines within bound/eluted sequences.
The cyclotides and empty yeast vector were then subjected to 10 μg trypsin protease digestion at 37° C. for up to 24 hours.

On to “pYES-MCoTI: native (natural) MCoTI cyclotide expressed in yeast from the pYES vector (cyclo(GGVCPKILQRCRRDSDCPGACICRGNGYCGSGSD); also: cyclic cystine knot, three disulfides CysI-IV, II-V, III-VI)”, for which the “resistance to trypsin digestion” value (10 μg trypsin, 37° C., up to 24 hours, SDS-PAGE) is given as “resistant to trypsin digestion”. Also, the resistance towards trypsin result (trypsin exposure up to 18 hrs (FIG. 28)) is listed as “resistance towards trypsin up to 18 hrs with no change in levels”.
